Laboratory results as given in patent publication US20200369727A1, “COMPOSITION AND METHOD FOR TREATING A PATIENT HAVING LIVER CIRRHOSIS” (priority 2019, published 2020).

Target: T1, NS3 of SEQ ID NO: 3 (HCV NS3 genotype 4a) (Hepatitis C virus genotype 4a, UniProt O39929)
T1 construct: T7 tag (N); 6-His tag (C); made in house; host or cells: E. coli Rosette (DE3) pLysS
Test: Differential static light scattering (DSLS), aggregation temperature of NS3 with peptide
Format: binding
Conditions: NS3 of SEQ ID NO: 3 with peptide in 1:2 ratio, room temperature, two hours, shaking
Experimental: The binding of SEQ ID NO: 4 and its variants of SEQ ID NO: 6-20 to the NS3 of SEQ ID NO: 3 were determined by differential static light scattering method using Stargazer-2™ (Harbinger Biotechnology and Engineering Corporation, Toronto, Canada). The method assesses protein stability by monitoring aggregate formation upon gradual increase of temperatures. NS3 domain of SEQ ID NO: 3 stability upon binding to NS4A of SEQ ID NO: 4 was measured by monitoring denatured protein aggregation upon increasing temperature from 25 to 85° C. in 0.5° C. increments at 600 nm. […] The mixture and control were incubated at room temperature with gentle shaking for specified time. […]. Afterwards, 10 μL of the mixture was transferred into a clear bottom Nunc 384-well plate and covered by 10 μL paraffin oil to minimize evaporation. Protein aggregation was monitored by tracking the change in scattered light that was detected by a CCD camera. Snapshot images of the plate were taken every 0.5° C. The pixel intensities in a preselected region of each well were integrated using image analysis software to generate a value representative of the total amount of scattered light in that region. […] Aggregation was monitored and analyzed to assess the effect of NS4A of SEQ ID NO: 4 and its synthetic analogues of SEQ ID NO: 6-20 on the stability of the NS3 as an indicator of binding. […]

Sequence: KKGSVVIVGRIVLSGKK [SEQ ID NO: 4, reference compound]
- ΔTagg (Tagg shift, aggregation temperature): 2.83 °C
